In patent US20230406922A1 (SIMCERE ZAIMING PHARMACEUTICAL, published 2023):
Substitutions are numbered along the chain they refer to.

T1: monkey CD19, full length, on HEK293T cells (monkey, UniProt P15391 20-556 (human entry))
T1 construct: The entry holds the signal peptide; also called HEK293T-monkey CD19
T1 chain: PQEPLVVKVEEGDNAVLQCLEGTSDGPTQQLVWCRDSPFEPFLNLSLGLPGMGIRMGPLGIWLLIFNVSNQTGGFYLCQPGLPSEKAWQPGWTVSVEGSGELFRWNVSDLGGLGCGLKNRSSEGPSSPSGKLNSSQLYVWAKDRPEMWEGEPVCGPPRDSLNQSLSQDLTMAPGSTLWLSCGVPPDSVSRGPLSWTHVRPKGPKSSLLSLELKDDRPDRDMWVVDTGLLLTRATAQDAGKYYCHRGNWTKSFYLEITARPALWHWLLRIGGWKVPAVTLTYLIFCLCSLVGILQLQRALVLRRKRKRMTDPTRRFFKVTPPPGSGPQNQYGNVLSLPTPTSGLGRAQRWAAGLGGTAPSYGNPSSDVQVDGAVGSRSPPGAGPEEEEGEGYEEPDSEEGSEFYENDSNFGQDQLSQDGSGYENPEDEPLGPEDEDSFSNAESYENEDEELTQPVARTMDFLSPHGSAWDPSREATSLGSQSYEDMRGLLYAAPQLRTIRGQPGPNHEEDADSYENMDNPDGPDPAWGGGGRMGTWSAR

B1: FMC63.26-mIgG1 (antibody, V domains shown)
VH: EVTLKESGPVLVKPTETLTLTCTVSGFSLPDYGVSWIRQPPGKALEWLAVIWGSETTYYNSALKSRLTISKDTSKSQVVLTMTNMDPVDTATYYCAKHYYYGGSYAMDYWGQGTTVTVSS
VL: DIQMTQSPSSLSASVGDRVTITCRASQDISKYLNWYQQKPGGAVKLLIYHTSRLHSGVPSRFSGSGSGTDYTLTISSLQPEDFATYYCQQGNTLPYTFGGGTKVEIKR
notes: Humanized FMC63; also called FMC63-L2H6
B2: FMC63.25-mIgG1 (antibody, V domains shown)
VH: B1 VH with P30S
VL: B1 VL
notes: Humanized FMC63; also called FMC63-L2H5

Assays:
[1] = target: T1, monkey CD19, full length, on HEK293T …; test: FACS on HEK293T-monkey CD19 cells
Experimental: (§1) For suspension cells Raji, the medium supernatant was discarded by direct centrifugation, and the cell pellet was washed twice with PBS. After cell counting of the cells obtained in the last step, the cell pellet was resuspended to 2×10⁶ cells/mL with a blocking solution [PBS+2% (w/w) BSA] and added into a 96-well FACS reaction plate at 50 μL/well. […] After the plate was centrifuged and washed 5 times with a PBS buffer, the results were assayed and analyzed by FACS (FACS Canto™, purchased from BD Biosciences). Data analysis was performed by software (CellQuest) to obtain the mean fluorescence intensity (MFI) of the cells. Then, analysis was performed by software (GraphPad Prism8), data were fitted, and EC₅₀ values were calculated.
(§2) HEK293T-monkey CD19 cells were subjected to the FACS assay and data analysis according to the method described in Example 4.2.

[2] = target: T1, monkey CD19, full length, on HEK293T …; test: FACS titration on HEK293T-monkey CD19 cells
Experimental: as §1, §2

Row | Binder | EC50 [1] [nM] | maximum mean fluorescence intensity [1] [MFI] | EC50 (read off the curve) [2] [nM]
1 | B1 | 20.3 | 38500 | 
2 | B2 | 1.52 | 34700 | ~0.2
